In article PMC7337493 (The Journal of Cell Biology, 2020):

B1: MBP-ATG13MR (domain or fragment, human, UniProt O75143 363-460, looked up)
chain: HDVLETIFVRKVGAFVNKPINQVTLTSLDIPFAMFAPKNLELEDTDPMVNPPDSPETESPLQGSLHSDGSSGGSSGNTHDDFVMIDFKPAFSKDDILP
notes: ATG13, human, middle region, residues 363-460; not shown: MBP, N-terminal, kept
B2: ATG13(363-C) (domain or fragment, human, UniProt O75143 363-517, looked up)
chain: HDVLETIFVRKVGAFVNKPINQVTLTSLDIPFAMFAPKNLELEDTDPMVNPPDSPETESPLQGSLHSDGSSGGSSGNTHDDFVMIDFKPAFSKDDILPMDLGTFYREFQNPPQLSSLSIDIGAQSMAEDLDSLPEKLAVHEKNVREFDAFVETLQ
notes: ATG13, human, residue 363 to the C terminus
B3: FIP200NTD (domain or fragment, human, UniProt Q8TDY2 1-640, looked up)
chain: MKLYVFLVNTGTTLTFDTELTVQTVADLKHAIQSKYKIAIQHQVLVVNGGECMAADRRVCTYSAGTDTNPIFLFNKEMILCDRPPAIPKTTFSTENDMEIKVEESLMMPAVFHTVASRTQLALEMYEVAKKLCSFCEGLVHDEHLQHQGWAAIMANLEDCSNSYQKLLFKFESIYSNYLQSIEDIKLKLTHLGTAVSVMAKIPLLECLTRHSYRECLGRLDSLPEHEDSEKAEMKRSTELVLSPDMPRTTNESLLTSFPKSVEHVSPDTADAESGKEIRESCQSTVHQQDETTIDTKDGDLPFFNVSLLDWINVQDRPNDVESLVRKCFDSMSRLDPRIIRPFIAECRQTIAKLDNQNMKAIKGLEDRLYALDQMIASCGRLVNEQKELAQGFLANQKRAENLKDASVLPDLCLSHANQLMIMLQNHRKLLDIKQKCTTAKQELANNLHVRLKWCCFVMLHADQDGEKLQALLRLVIELLERVKIVEALSTVPQMYCLAVVEVVRRKMFIKHYREWAGALVKDGKRLYEAEKSKRESFGKLFRKSFLRNRLFRGLDSWPPSFCTQKPRKFDCELPDISLKDLQFLQSFCPSEVQPFLRVPLLCDFEPLHQHVLALHNLVKAAQSLDEMSQTITDLLSEQK
notes: FIP200 (RB1CC1), human, N-terminal domain, residues 1-640 of 1,594; the form printed without a tag in NSEM, MALS, HDX-MS and cryo-EM samples; also called FIP200 N-terminal domain; untagged FIP200NTD
B4: FIP200NTD–MBP (domain or fragment, human, UniProt Q8TDY2 1-640, looked up)
chain: B3 chain
notes: FIP200 (RB1CC1), human, N-terminal domain, residues 1-640 of 1,594; also called FIP200(N-640)–MBP; FIP200-MBP; not shown: GST, N-terminal, cleaved; MBP, C-terminal, kept
B5: MBP-FIP200NTD (domain or fragment, human, UniProt Q8TDY2 1-640, looked up)
chain: B3 chain
notes: FIP200 (RB1CC1), human, N-terminal domain, residues 1-640; also called N-terminal MBP–tagged FIP200NTD; not shown: MBP, N-terminal, kept

Key:
FIP200NTD [1] = target: B3; assay: SEC-MALS; Superose 6 Increase 10/300 GL; 50 mM Tris, 150 mM NaCl, 1 mM TCEP, pH 7.8; sample ~6–10 µM, 100 µl injected; conditions: both partners purified
FIP200NTD [2] = target: B3; assay: negative stain EM; purified samples diluted to ~50–200 nM, uranyl acetate stain, 2D classification; MBP tags used to mark positions; conditions: both partners purified
[3] = target: the molecule itself; assay: SEC-MALS; Superose 6 Increase 10/300 GL; 50 mM Tris, 150 mM NaCl, 1 mM TCEP, pH 7.8; sample ~6–10 µM, 100 µl injected
[4] = target: the molecule itself; assay: negative stain EM; purified samples diluted to ~50–200 nM, uranyl acetate stain, 2D classification; MBP tags used to mark positions

Row | stoichiometry N (FIP200NTD [1]) | Binder | stoichiometry N [4] | also measured
1 | 0.5 molecules per molecule of FIP200NTD (2:1 FIP200NTD:binder) | B1 | – | stoichiometry N (FIP200NTD [2]): 1 per FIP200NTD dimer
2 | 0.5 molecules per molecule of FIP200NTD (2:1 FIP200NTD:binder) | B2 | – | –
3 | – | B3 | – | stoichiometry N [3]: 2
4 | – | B4 | 2 | –
5 | – | B5 | 2 | –
